Laboratory results reported in paper PMC9065369 (Cell Reports, 2022).

Target: Mono ubiquitin (UniProt P0CG48 1-76)
Assay: ITC

B1: hsHDAC6 (1108-1215) (domain or fragment)
chain: TPLPWCPHLVAVCPIPAAGLDVTQPCGDCGTIQENWVCLSCYQVYCGRYINGHMLQHHGNSGHPLVLSYIDLSAWCYYCQAYVHHQALLDVKNIAHQNKFGEDMPHPH
B1 was tested, and the Kd was 5.16 ± 0.47 µM.
